Biological target: beclin 1 (UniProt O88597)
Assay: anti-BCL2 IP, beclin 1 blot
Conditions: sites T69,S70,S84

| binding against the reference (reference: wild-type MEFs, starved) | binding against the reference (reference: wild-type muscle, exercised) | Substance |
| --- | --- | --- |
| stronger | – | BCL2 (from UniProt P10417) BCL2 AAA MEFs, starved |
| – | stronger | BCL2 (from UniProt P10417) BCL2 AAA muscle, exercised |

Source: article PMC3518436
